Data from US20170137467A1 (CHROMOTEK, published 2017).
Square brackets hold non-standard residues; d marks the D form. GABA = NCCCC(=O)O

Tests used:
Experiment in all cases: peptide library pulldown on immobilized Nb, LC-MS of supernatant; ratio vs GFP-Nb control (1 = not captured, 0 = captured)
[1] = target: T1, BC2T S8P library peptide (human)
T1 construct: also called BC2TS8X: P
T1 peptide: Ac-PDRKAAVPHWQQ-NH2
Summary of the method: (§1)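 Unbound peptide left in supernatant after 1 h pulldown in PBS/0.01% CHAPS measured by reversed-phase LC-MS (8–30% eluent B gradient, 20 min).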

[2] = target: T2, BC2T S8D library peptide (human)
T2 construct: also called BC2TS8X: D
T2 peptide: Ac-PDRKAAVDHWQQ-NH2
Summary of the method: as §1

[3] = target: T3, BC2T S8E library peptide (human)
T3 construct: also called BC2TS8X: E
T3 peptide: Ac-PDRKAAVEHWQQ-NH2
Summary of the method: as §1

[4] = target: T4, BC2T H9(I/L) library peptide, version 2 (N-terminal acetyl, C-terminal amide)
T4 construct: Ile and Leu versions are isobaric; two versions resolved but not assigned; also called I/L2
Summary of the method: as §1

[5] = target: T5, BC2T H9M library peptide (human)
T5 peptide: Ac-PDRKAAVSMWQQ-NH2
Summary of the method: as §1

[6] = target: T6, BC2T H9T library peptide (human)
T6 peptide: Ac-PDRKAAVSTWQQ-NH2
Summary of the method: as §1

[7] = target: T7, BC2T W10G library peptide (human)
T7 construct: also called BC2TW10X: G
T7 peptide: Ac-PDRKAAVSHGQQ-NH2
Summary of the method: as §1

[8] = target: T8, BC2T W10V library peptide (human)
T8 construct: also called BC2TW10X: V
T8 peptide: Ac-PDRKAAVSHVQQ-NH2
Summary of the method: as §1

[9] = target: T9, BC2T W10M library peptide (human)
T9 construct: also called BC2TW10X: M
T9 peptide: Ac-PDRKAAVSHMQQ-NH2
Summary of the method: as §1

[10] = target: T10, BC2T W10C* library peptide (human, SMILES …)
T10 construct: also called BC2TW10X: C*; C(Abu)
T10 peptide: Ac-PDRKAAVSH[GABA]QQ-NH2
Summary of the method: as §1

[11] = target: T11, BC2T W10R library peptide (human)
T11 construct: also called BC2TW10X: R
T11 peptide: Ac-PDRKAAVSHRQQ-NH2
Summary of the method: as §1

[12] = target: T12, BC2T W10E library peptide (human)
T12 construct: also called BC2TW10X: E
T12 peptide: Ac-PDRKAAVSHEQQ-NH2
Summary of the method: as §1

[13] = target: T13, BC2T Q11A library peptide (human)
T13 peptide: Ac-PDRKAAVSHWAQ-NH2
Summary of the method: as §1

[14] = target: T14, BC2T Q11G library peptide (human)
T14 peptide: Ac-PDRKAAVSHWGQ-NH2
Summary of the method: as §1

[15] = target: T15, BC2T Q11S library peptide (human)
T15 peptide: Ac-PDRKAAVSHWSQ-NH2
Summary of the method: as §1

[16] = target: T16, BC2T Q11Y library peptide (human)
T16 peptide: Ac-PDRKAAVSHWYQ-NH2
Summary of the method: as §1

[17] = target: T17, BC2T Q11D library peptide (human)
T17 peptide: Ac-PDRKAAVSHWDQ-NH2
Summary of the method: as §1

[18] = target: T18, BC2T Q12F library peptide (human)
T18 peptide: Ac-PDRKAAVSHWQF-NH2
Summary of the method: as §1

[19] = target: T19, BC2T Q12Y library peptide (human)
T19 peptide: Ac-PDRKAAVSHWQY-NH2
Summary of the method: as §1

[20] = target: T20, BC2T Q12K library peptide (human)
T20 peptide: Ac-PDRKAAVSHWQK-NH2
Summary of the method: as §1

B1: BC2-Nb(R106E) (VHH)
VHH: QVQLVESGGGLVQPGGSLTLSCTASGFTLDHYDIGWFRQAPGKEREGVSCINNSDDDTYYADSVKGRFTIFMDNAKDTVYLQMNSLKPEDTAIYYCAEARGCKRGEYEYDFWGQGTQVTVSS
notes: Headlock mutant; immobilized on beads in the library pulldown
B1 was tested, and the ratio [1] was 1, the ratio [2] was 1 and the ratio [3] was 0.9. It also gave a ratio [4] of 0.2, a ratio [5] of 0.2 and a ratio [6] of 0.4. For the same binder, the ratio [7] was 1.2, the ratio [8] was 1 and the ratio [9] was 1.1. For the same binder, the ratio [10] was 1.1, the ratio [11] was 1.3 and the ratio [12] was 1.2. It also gave a ratio [13] of 0.3, a ratio [14] of 0.4 and a ratio [15] of 0.2. It also gave a ratio [16] of 0.1, a ratio [17] of 0.5 and a ratio [18] of 0.3. The ratio [19] was 0.2 and the ratio [20] was 0.
